This experiment deals with AP-1σ1 (cells' own, or HA-AP1S1) (UniProt P61966). The experiment is described as follows: anti-Flag IP, western blot for AP-1. The note with it: reference: wild type; sites S366.

The results in this text go back to PMC9605868.

As for STING (from UniProt Q86WV6) S366A, the “binding against the reference” value is given as “weaker”.
